Values of other authors as cited in PMC3081175.

Molecular target: c-Met (Homo sapiens) (UniProt P08581)
Chain of UniProt P08581 (P08581 25-932): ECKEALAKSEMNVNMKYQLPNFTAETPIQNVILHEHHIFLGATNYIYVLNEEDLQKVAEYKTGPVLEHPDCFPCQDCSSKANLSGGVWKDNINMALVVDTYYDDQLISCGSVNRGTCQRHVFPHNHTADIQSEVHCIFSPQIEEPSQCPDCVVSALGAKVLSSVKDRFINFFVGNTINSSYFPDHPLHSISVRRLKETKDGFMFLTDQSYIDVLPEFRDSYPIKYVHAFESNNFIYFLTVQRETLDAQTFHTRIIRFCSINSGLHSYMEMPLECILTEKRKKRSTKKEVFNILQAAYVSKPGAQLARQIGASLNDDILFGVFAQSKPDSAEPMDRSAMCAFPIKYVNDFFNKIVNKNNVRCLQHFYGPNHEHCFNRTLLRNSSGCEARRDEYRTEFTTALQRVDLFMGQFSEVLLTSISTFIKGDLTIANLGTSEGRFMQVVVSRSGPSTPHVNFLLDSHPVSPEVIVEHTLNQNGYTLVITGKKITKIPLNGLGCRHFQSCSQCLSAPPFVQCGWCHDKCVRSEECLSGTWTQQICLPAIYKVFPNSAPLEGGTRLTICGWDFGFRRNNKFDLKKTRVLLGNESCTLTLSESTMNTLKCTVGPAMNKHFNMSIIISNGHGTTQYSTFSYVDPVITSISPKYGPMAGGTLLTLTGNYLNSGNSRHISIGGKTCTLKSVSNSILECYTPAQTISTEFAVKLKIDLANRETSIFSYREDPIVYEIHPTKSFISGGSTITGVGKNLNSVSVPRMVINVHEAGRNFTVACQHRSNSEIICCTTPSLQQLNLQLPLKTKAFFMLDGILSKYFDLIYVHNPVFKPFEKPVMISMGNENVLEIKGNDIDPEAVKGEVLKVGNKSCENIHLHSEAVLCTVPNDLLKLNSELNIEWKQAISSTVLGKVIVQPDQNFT

In the case of HGF (from UniProt P14210), the Kd is listed as 0.03 nM.
